The values that follow come from US20090142806A1 (Pfizer, published 2009).

The target of one experiment is T1, human IL-17R-Ig (human).
T1 construct: also called IL-17R-IgG; IL-17R-Ig fusion protein
The experiment is described as follows: ELISA, IL-17R-Ig coated at 1.5 µg/ml, serial dilutions of biotin-conjugated IL-17F.

Another experiment deals with T2, human IL-17RC-Ig (human).
T2 construct: also called IL-17RC-IgG; IL-17RC-Ig fusion protein
Description: ELISA, IL-17RC-Ig coated at 1.5 µg/ml, serial dilutions of biotin-conjugated IL-17F.

T2 sequence (chain, as listed by the source limits assumed): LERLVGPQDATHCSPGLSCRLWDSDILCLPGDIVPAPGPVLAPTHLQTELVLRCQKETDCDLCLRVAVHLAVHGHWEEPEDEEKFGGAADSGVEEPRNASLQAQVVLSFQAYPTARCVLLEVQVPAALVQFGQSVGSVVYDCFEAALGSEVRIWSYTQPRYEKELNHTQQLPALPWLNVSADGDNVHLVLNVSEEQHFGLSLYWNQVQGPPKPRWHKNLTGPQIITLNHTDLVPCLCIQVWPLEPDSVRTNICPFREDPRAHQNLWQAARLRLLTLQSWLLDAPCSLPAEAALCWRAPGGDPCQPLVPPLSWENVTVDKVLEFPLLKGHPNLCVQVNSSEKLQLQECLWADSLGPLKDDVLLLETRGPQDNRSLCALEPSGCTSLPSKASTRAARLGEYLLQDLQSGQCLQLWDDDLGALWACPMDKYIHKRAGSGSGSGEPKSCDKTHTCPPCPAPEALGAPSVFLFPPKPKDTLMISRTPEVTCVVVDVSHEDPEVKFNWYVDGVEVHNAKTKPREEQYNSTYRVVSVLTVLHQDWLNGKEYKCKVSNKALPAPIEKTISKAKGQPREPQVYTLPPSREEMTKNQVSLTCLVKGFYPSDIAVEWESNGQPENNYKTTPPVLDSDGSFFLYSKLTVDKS
T1 sequence (chain, as listed by the source limits assumed): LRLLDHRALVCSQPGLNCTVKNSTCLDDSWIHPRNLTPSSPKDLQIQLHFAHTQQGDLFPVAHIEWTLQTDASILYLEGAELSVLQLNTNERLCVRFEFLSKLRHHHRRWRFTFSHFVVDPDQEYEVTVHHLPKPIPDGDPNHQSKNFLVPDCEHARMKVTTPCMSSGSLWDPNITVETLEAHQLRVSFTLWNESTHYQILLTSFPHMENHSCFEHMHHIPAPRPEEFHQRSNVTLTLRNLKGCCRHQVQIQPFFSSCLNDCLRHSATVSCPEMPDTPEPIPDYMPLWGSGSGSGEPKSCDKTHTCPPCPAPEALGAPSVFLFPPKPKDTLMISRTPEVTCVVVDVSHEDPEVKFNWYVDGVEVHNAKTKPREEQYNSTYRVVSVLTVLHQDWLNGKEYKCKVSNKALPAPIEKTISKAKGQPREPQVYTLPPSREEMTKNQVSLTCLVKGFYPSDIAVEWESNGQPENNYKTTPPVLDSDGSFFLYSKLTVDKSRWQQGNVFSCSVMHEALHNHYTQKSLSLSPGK
Description for human IL-17R-Ig: (§1) After washing, saturating concentrations of avidin-horseradish peroxidase (HRP) were added, and plates were incubated for an additional 1 h at RT. Unbound avidin-HRP was washed using PBS/1% BSA, and the ELISA was developed using TBM.
Description for human IL-17RC-Ig: as §1

B1: human IL-17F (IL-17F homodimer) (ligand)
chain: RKIPKVGHTFFQKPESCPPVPGGSMKLDIGIINENQRVSMSRNIESRSTSPWNYTVTWDPNRYPSEVVQAQCRNLGCINAQGKEDISMNSVPIQQETLVVRRKHQGCSVSFQLEKVLVTVGCTCVTPVIHHVQ
modifications: biotin-conjugated in the receptor-binding and inhibition ELISAs (sites not given)
notes: Used as purified protein, as recombinant conditioned media (293, COS) and as natural protein from T cell conditioned media; also called IL-17F/F; interleukin-17F
B1: the EC50 was 1.23 µg/mL with human IL-17R-Ig and 15 µg/mL with human IL-17RC-Ig.
